{"source": "a protein production outcome set (Wang et al. 2014)", "assay": "label from the status in PepcDB records"}
{"sequence": "QWDITLIGHEDDLSQLSHEKLSKLAACIEYSPYPMVEIDYFGNLTYLNTATKEKFPSIQKDSMAHPLLKDIIPQREDTPIYYLRTREVQIGDKFYEQHIHYPAESQFIRSYIFDITERKVIEQSIHYQAFYDPLTDLPNRFLFKQELGKVLSNVQNQSSVLGLVLLGFRELQSLNDLLG", "values": [{"measurement": "protein production", "value": "failed"}]}
{"sequence": "QYMSYDRNAFGNQVMGQFGNASGSVTSNKIFGFRSDILLQLLNMKISKDHQELNQNQVIQLVPTYLQQLYNEMNNGDPTMYKDLLNLHSNIVHPSGMYMNPLLYANQNPNAAGYNQGTGGVPPMAGGSVAHGPPAAPAP", "values": [{"measurement": "protein production", "value": "failed"}]}
{"sequence": "RAELRGVVRVAASEVVGAEVLPPLVARLRQACPNIVIELMLSNRFQDLLHREADIAVRMVAPQQEQLIARRLGRIELGLHATAAYLTRQGLPATLDDLASHALIGFDSATPLVRRALQAYPRFQREAFAMRTDSDLAQLSLIRAGA", "values": [{"measurement": "protein production", "value": "failed"}]}
{"sequence": "RALRRRGGDAAAKLAGLVLIAPAPDFTEALMWKGFSPEIRAEIETKGVWHRPSEYGEPYPITKALIEDGRNHLVLDGMIEVGCPVRILQGKQDEDVPWRHAFELAERLPTDDVVLTMIQDGDHRLSRPQDIARMLAAVEE", "values": [{"measurement": "protein production", "value": "failed"}]}
{"sequence": "RAVAGWGARPSAAPARRRARSLGVPYIALEDGFLRSFGTGRHFPPLSLVVDRLGIYYDATRESELECLLASSRTLLDGIEDAVPEAMELVRERRLSKYNQGCFLATGVPADGRRRVLVVDQTEGDMSVTLGCAEAATFEAMLAAARAESPGALICVKTHPEVAAGDKSGYLSRVTDDADTVALRHDMNPLALLEQMDRVYVVSSQMGFEALMLDKPVTCFGMPWYAGWGVTDDRQRCERRGRARSVEELFAGAYFHYTRYLDPVLH", "values": [{"measurement": "protein production", "value": "failed"}]}
{"sequence": "RDVAFTADGTTAYGTLHVPEHRAGQRLRAALLLPGSGPTDRDGNQPPASLPDTLAQLADTLGKDGVATLRFDKYGTGRTGLGTYQDRPEELDYPAFVRQARAGYESLRDQPETDPHALLVVGHSEGAMTGLLLGGTVSPRPAGLALLQPQAIRMLDLVALQLRAQIAEATRQGQFTPEQQRTVNAAVDAAVTALRERRPVDTADLPSPIARLFEAFQGPNARFVRSDDAVYPPDTAFALRPGTKVLLTCGTHDVQVPCDTTNVLTTALRHAHAHGPGRVVLPGVDHLMHDTDHPATLTPPVLDSL", "values": [{"measurement": "protein production", "value": "failed"}]}
{"sequence": "REIADNTYIVLGTMTLNDFNEYFETDLESDNVDTIAGFYLTGVGTIPSQEEKEHFEVESNGKHLELINDKVKDGRVTKLKILVSE", "values": [{"measurement": "protein production", "value": "not failed"}]}
{"sequence": "RETYPDAVKICNICHSLLIQGQSCETCGIRMHLPCVAKYFQSNAEPRCPHCNDYWPHEIPK", "values": [{"measurement": "protein production", "value": "not failed"}]}
{"sequence": "RFLEDMTIGERREVGTFTFTADAIKTFAAQFDPQPFHLDEEAGKNSLFGGLAASGWHVAAVCMKLMVADAQRESAEAAKRGELVATGGPSPGFRELRWLKPVLAGDTITYYKQVESLRPSDSRPQWGIMQARNTGINQRGEVVFSFLATAFVPRRPNA", "values": [{"measurement": "protein production", "value": "failed"}]}
{"sequence": "RFNPFIHQQDVYVQIDRDGRHLSPGGTEYTLDGYNASGKKEEVTFFAGKELRKNAYLKVKAKGKYVETWEEVKFEDMPDSVQSKLK", "values": [{"measurement": "protein production", "value": "not failed"}]}
{"sequence": "RHQPEINQTPGEAQALFVWRDNQDHRDDIERHYLKMLTSARREVIIANAYFFPGYRLLHAMRNAARRGVRVKLIVQGEPDIPIVKFGAHLLYHYLVKGGVQIYEYRRRPLHGKVALADDHWATVGSSNLDPLSLSLNLEANLIIHDRVFNQTLRDNLNGLIARDCQRIDKTMLPKRNWWRLGVSVMAFHFLRHFPAWVGWLP", "values": [{"measurement": "protein production", "value": "failed"}]}
{"sequence": "RIGDGSPSHPPILERTLDDVPGPPMGILFPEVRTTSVRLIWQPPAAPNGIILAYQITHRLNTTTANTATVEVLAPSARQYTATGLKPESVYLFRITAQTRKGWGEAAEALVVTTEKR", "values": [{"measurement": "protein production", "value": "not failed"}]}
{"sequence": "RIKPGPNGRALLFIHGTFSTTDGSFGDLASAEFFGELARTYGNAIYGFDHYSVSVTPEKNASDILKTLPSGGIDCDVVTHSRGGLVLRTLNERQGDLSQGKRFRLQRAALVACPNEGTQLATPDRWQGTLGWLANLLDLFPPNPITSNAALVMHWVTWFAKVGVAAAEG", "values": [{"measurement": "protein production", "value": "failed"}]}
{"sequence": "RIPDIEEVELAEAPADKVLPDGFYVTTNHPTFVRYGGEWLPVEDISMDRVIVIRDGRAYCIPIDEVVRGDRVVVGEKGVRVVPPERPRKSTVFEFMGGRVSSERPTERMIEAIAREIYELKLKGGKIAVVAGPAVDHTSARNALAALIRDGYVDLLLSGNALAVHDIEISIFGTSLGMDICKGRPVPGGNRHHLYTISKVIAAGGIKKAIEKGIIKDGIMYECVKNNVPFILAGSIRDDGPLPEVITDVMVAKKKMKEALRGINMVIMLATMLHSIAVGNLLPSYVKTICVDMNPSTVTKLMDRGTHQAIGVVTDVGLFLPLLYLKIKE", "values": [{"measurement": "protein production", "value": "failed"}]}
